Measurements published in the domain aggregation screens of Martell et al. (2025).

Experiment: soluble fraction after stress (log2 fold change); higher = more stays soluble; pooled small domains, quantitative proteomics
Conditions: stress: pH 4
Procedure, shortened: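 Values are on a log2 scale, where higher means more of the domain stayed soluble after pH 4 stress. They are fold changes in the soluble amount of each domain from pooled custom libraries, measured by high-throughput quantitative proteomics. The fold change is taken to reflect aggregation propensity.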

Row | Sequence | soluble fraction (log2)
1 | HMTLFDESGYTARELEIIREVANGLSNKEIADKLFLSEGTVKNYITGILAKENLSHRTALAVYYLTGRK | -0.558
2 | HMNLSNVVIRKVQEMILSGELQEGDKLPPEREMTQRLGIGRPALREGLKSLEMLGLVERRHGLGNFIINKV | -0.475
3 | HMIANNFDEFVEKVSEAERKALNMPAGQEMTQKLLEMKLAANPNLTPEEWQRTKSEFMTFLFAVFVRE | -1.02
4 | HMNQIATSTQAIITTLSFLNTSSIFKLPVGDTASRPTGVSPGTLRFNSQEDSAEIYKADDGTGSAGWTEVA | -1.3
5 | HMTDMYLTYQELRHLGVSQNLISMWKSRKSIDFHMLGGTLYVRYMSIPEQTRSKLALQNVERVYNSRE | 0.0329
6 | HMKVSVDLSMFEDDQTADRNAAVAWVVDELGAGGVDRTILMQLQSTGWSAEQSRAILDLASAGR | -0.324
7 | HMILNPADEEKMNLINFELQQRGLEINDKEMQYIFTHHSRDLNSLLNLAEKLDEISHQEKKSISINLIKKI | -0.158
8 | HMKIKAKYTTDFGIRIYAPKPGKNYWRISYVDLDGKLRDTTATSEKTALDKSAEIEVLLRNN | -0.232
9 | HMTIKTAFPAEDLAKPDNFKSLLYYFGLLTIRGTKWGSTLLAIPNLTVREQLYSYLVEAYRSADL | 0.244
10 | HMLKHNLLSELSRIEGVGAVKRKALMDKFGTVENIKRASEEELSEVAGIGPTLARTIKEQMNKDE | -0.2
11 | HMITLYDLLGVSKTASSQEIKTAFKKKALQYHPDKNDGNPDKEEIFKRINMAYQVLGQPQSRANYDFSITP | 0.0886
12 | HMNGQITPSRAKEIALGHAGVSEGSANFKKIKLDNKNGRPAYEIEFIANNSRYEFEINASNGSIIKFNK | -0.0812
13 | HMKTTSYAKLLRFLRTERDLSQITVAKQLGLSRASYLALEHGSRELSLSEAVKVTTLYGIRIDDLIVNH | -0.899
14 | HMTGKASEIAALLEQRIAAGDYPAGSKLPSERELAASFHVSRNTIRDAIALLAARKIVSTKWGAGTVVLG | -0.0946
15 | HMTDRINIGDVVTIISKDREDSQIVYMRYHKGKLSILGELILNKTKNDTVDFKGRTYDIATIEKS | -0.228
16 | HMTLAEEFNNLNGKVITRETLESLLVKAEKEQNSTISNRIRKVLQAYTADTFLIELQHTESA | -0.0269
17 | HMHSILDDIPTVGPARRKALMRRYESLEAIRQATVDELKELPEINEASAEAIVSFFAGQAKEG | -1.13
18 | HMQLTPAQHAILAKAIHSSDGKIEWFPDNVKGGARKKVLEGMFNRALITPDGEGWRIAAEGYDALGMPRP | 0.165
19 | HMGSVVATLRKLIIDGHYPAGTRLAEIPVANALGVSRTPVRLAFRTLQQEGLLQTVGKRGIVVRAF | 0.137
20 | HMSLNQRIKEARIKMGYTQEQLGNLIGVAKTTISGYEKNREPDAATIGLIIDALKVDANFLFQ | -1.2
21 | HMAPTPAGNLRSLKSEIVNYTRQSSTAYVYTFKDLSSGELYTARASRYYAAAGDTAYISTAAGAITDM | -0.0513
22 | HMIYRTTSVPIDNISTQKFNLQEGWIEMNKNEVEDFIRQKNLELVVTDSNVMLDKFALNGDPNKFKVFKY | 0.104
23 | HMAAAKDVMDWQNAIRGLTDAKGKPYSPTYLKTVHNQLSALFNHAVRYYGLQVNPAAKAGNMGVEE | 0.00664
24 | HMGTVRFYNKERGFGFVVSDDGESVFLPAKALPDGVSDLSPGTRVDYGAALGKKGSQ | -0.203
25 | HMGKEYERALQQVTKSEIDSDEKLQQQMDALVNSPRISDKEDAWALLLVKKLRNEGVEWDELPDVLSERVQ | -0.856

Row | Sequence | soluble fraction (log2)
26 | HMVEGVSLVEIYVDENSKYNGKLLSEIPKKENTLVIMIQRGEQVIIPHGNIRLESGDMLVVSKTEI | -1.38
27 | HMGELVIPPLRERTVVDAVAEAERLGFVVQVEPVASSLPEGRVLGQSPEPGTRARKSQVVVLQVSRG | 0.00536
28 | HMTILKEGMSGPEVERLQDALKRHGFDPGRVDGQFGPGTEAAILAFQKSEGLRADGVAGPKTQQALGLE | 0.155
29 | HMEDEFNQIASQKNVPSFLGKGKKEVINIAKKNKIKINLSGNGYVKRQIPAPGEVISHLDEVTIFLEPG | -0.179
30 | HMQSTEQVSVTVTIPPGGELRIDSDTFRVLLNGENVLDKQSGDWLMLSRDLLYLDIESAIGNGLSGNLIYT | -0.143
31 | HMAEVAFEEQNIEQISNLLLRIQAIFAELMTALDKEKGGEIADNLERLYVFFLEKLGDANVRKDPAP | -0.135
32 | HMIKLSEAEWKVMKLLWEESPKTMMQITNLLKETTGWTKHTVMTFLKRMEEKKAIHYEEGGRAKLYYP | -0.0902
33 | HMNTQGWEIFEGRITTADTDLNPSGWIRIDGQRIFVISDAGFIDKGKEVSILSVDGNRVLVRK | -0.632
34 | HMSSVMMPDLTGESAIVAMERLQQLGLLPKVEEVDSYREPGIVLEQLPRAGEKIKRGRIAILKVSS | -0.131
35 | HMTLSAPMPGTVLKIHVKEGQRVRKGQTLVVLEAMKMEHRIQAPKAGEVTNLHFSEGDRVDMGEILVEIG | -0.905
36 | HMNNYNDSVQKIINYIADNLNENLSVRKLADKMPMSVSHFNRVFQKYTGDSPYAYVMAMRIKKAKYL | -0.565
37 | HMTISIAEQIFEQLEREILSGAYPRGELLTETKLSEKLGVSRTPIREALRRLDQEHIIKMTTKGAFVLGI | 0.198
38 | HMVSNFEAEFGRHFAIFFPGSEFTELKLRLLEEGAELIDPIRDTPFERFFFKDPNGYIFEVIDKE | -2.33
39 | HMDPAFAQHHDRALSILHSRGYEVHDSDTDLHWARPVLEFEAYKGSLEYKIVMSYPDLNIIEERVD | -0.685
40 | HMDLHSQVFESYERKIREVLREGPLTFEEILHAFALKRHETVAQVITYLMDEGKMSDSGDGKLIYSG | -0.295
41 | HMDEDTWKLYKRAYKKYYARYMKGNMSEEAFKTWAAQAARDRDAAIEQVKAALDENLKAQVIERLKEELNR | 0.22
42 | HMDPASYEARLSTLREQGAQQLDPVRFQYLATLAQRLPTQTPGVALILANKLRAGLSDYEQRLSEAGS | -0.0623
43 | HMEQVKFFDAKVITTPPNRLKTRYTPAGNLRPEADWLQSGAIVPVYETSGAGWYRIGYQTWASAEWMQRLD | 0.166
44 | HMDDPLSQLTPREREVLELMASGASNQGIADALVITVRAVEKYVSSIFGKLGLPSTGSESRRVLAVLTFLR | -1.32
45 | HMLSVNREQVEQSLKQEWGFDYDKNLRAAQRAIDVYGDDDLKLLLNGPTGNDPAIVKLFARLGGEVTEE | -0.813
46 | HMQTPPGRYRHYKGGLYEVIATARHSETLEPMTVYRALYGEQGLWVRPAAMFAEDITLEGVRQPRFARI | -1.27
47 | HMVGLTDLQRNVLVQIARGKSRQLISRTLKVTPAEISAALKVAQRRYRVASSTEVIVQALYDKTLSFHEIM | 0.105
48 | HMEYKYNPADYPYPLNEDIEKVYSAYREKSIGKLEAAVQNLYYTLKQARRDNILSDVKVNEMQQYFLALRN | 0.0584
49 | HMQPKKLNMYYDYVRQLLESHPYLSAAQIEDRLKEEFTELPMVHSKTVFNFVENIRLQHGINKHA | 0.0853
50 | HMNPSKEFNMSDLLKAKMVGDVSAAKRREKAGALLHIGYGNAKTFLKKLNHFSISREEWDKVIAAMEEF | 0.0295

Row | Sequence | soluble fraction (log2)
51 | HMADPVTPQDLIRWSEALAGIARTGLGFTQSLYEQERFEEVLAVAADMRVAAGSSYNPDDLVHEWMKSVG | -0.34
52 | HMTNQKEITYSQFRQELDQGSIKSVSLQGSRIRGTYVDGGISFRTLAPNDADLIPSLMKHKVDIQVLPED | 0.0675
53 | HMVQIFIPVVHDDHWFLIVFSREEDTFYVLDSLPSLSRISTINGIISTLKEHLQQASVGPQYSVKVLPVK | 0.144
54 | HMNLVGGKINSLMTTKNVTIQDLSERSGLTVSQIELLLSGDKVPSLAVLIKIARGLGVRVGTFL | -0.156
55 | HMLSFSEAERAVLSLLNRRPDLSAKALASELAVSARTVERYLQSLQQKGKLLRVGAKKGGYWQV | 0.115
56 | HMNSKSDDELLSKTTSLLIHAAKIDENYTDKEKEIIKKTLIQLGVKESKADQIMLTAEINEE | -0.36
57 | HMTSVMAWRLITPIPQHGIIRSSQVQLQKHAPNSLKFLDVDSSPVGKQVKHGIAAGHWLSKDDFTE | ≥ 0.43
58 | HMSAATGIINTDNVNIRSGPATTYDAVGRLNQGSSVEILSSRNDWYQIQANSLKGWVRNDLLNVQK | 0.0683
59 | HMIGILSDREAEILALLDEGLTNKAIGRRLNLAEPTVKFHLKNLYAKLGVGRRQLAVNVAKGSGLLNSD | -0.167
60 | HMANLNFDMSQIVASRYQEKAAELGVTAPSLARTDYNTQEQATYEFVAREIIADYYDDRVAPFNDLIPE | -0.967
61 | HMGGGVERLTPRQREVLGYMAEGRSNSWIAGAIGFSEKAVVQHTSKIYDALGLAVDADDHRRVLAVLRYLT | -1.07
62 | HMFDVRWEQGYALAAAYAQEYGNLDVPRDYKTADGKKLGRWIQSQEQAYEQKKLSEEQISRLEMIGMQWG | 0.0698
63 | HMFRDFSETLLRKLQAAGGFLPFTDKTDAEAIAEHFQVSKKTFKRAVGTLYKQRRILIDDEGITLIG | 0.252
64 | HMQITQSSEPIDVSALRLGMFIHLEGGWLSHPFPRSSFKITSEDQLVTLRSLGISVLRWSPELSDPE | -1.46
65 | HMAMTITKIEKTSQQKIYYFTDSGRVFKKMSDRSATIAVDDRVELEGGVLGSKFFVTANGSRVKVKEV | 0.0344
66 | HMLHPLLWAVDEPTPVTVRTRPEYVPDVVRWLMQPESQREHDGVVDLRYTVTHRAAFRSRIYVLGTRVTIP | 0.17
67 | HMGQVSDENQLNKVIDEVIKNYPIQVEQFKAGKEPILQFLKGMVMKATEGSADPAVAEKLLRKKL | 0.0192
68 | HMDPTLFRLNILEGLGLEKKNLTSEEQEQLRFLYEHFSMKEILMTIDYIKKLNLEKSIVNLYRLMQHP | -0.581
69 | HMNKKAAYKDMAGYFAEMKSKDAADILSRLKDEDIIGIFNEMPRDMVAEMLQKMDRDKATTLTRKML | 0.235
70 | HMIYGNGVTDLKDLANGATIIIPADDSNETRALFLLQQEGLIKLPDDADAAKGVSTLDIVDGGGWVTSM | -0.381
71 | HMALPHEIKQKWLEEIMTMLRSSDSVTINKVYLHFPENKSHWVDEILTDLSNTHMITRQHDFIRLKN | -0.221
72 | HMFYQLTENQRRILSSLEQNPRVSAAHLAEEIGISSRKVENNLKKLKEIGLLQRHGSPRKGYWSINQGW | 0.15
73 | HMFRPDYYEILQVDRHASPEVITAAYRQLLSIYNSEQDGNKQMIKLIQEAYGVLGDSQDRWLYDSWLDNN | -1.37
74 | HMASFASRAEEVMTKLLANGQPRIKEVADAMHLSSRTLQRRLEREGVSFAELLDRLRKRLAHDMLAHS | ≥ 0.43
75 | HMDFRQALNTSADSDANKVALLESIVKGKYVSSTVNLLRRVITLRRGRSIDATLAAYSHYVSIR | 0.385
